The target of one assay is T1, CH3C.18 Fc-Fab fusion (Homo sapiens (Human), UniProt P0DOX5 230-449 = IgG part).
T1 construct: bivalent for TfR; also called CH3C.18.1.18
T1 Fc: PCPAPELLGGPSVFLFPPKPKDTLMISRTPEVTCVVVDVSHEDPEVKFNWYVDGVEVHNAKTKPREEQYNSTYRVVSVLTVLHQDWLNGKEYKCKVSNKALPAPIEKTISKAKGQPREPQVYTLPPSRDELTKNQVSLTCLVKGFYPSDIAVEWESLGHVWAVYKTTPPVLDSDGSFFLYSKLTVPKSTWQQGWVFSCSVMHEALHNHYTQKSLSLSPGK
Kind of assay: phage ELISA: phage-displayed human TfR apical domain, dilution series on plate-coated CH3C.18; OD650. The procedure:
(§1) The plates were subsequently washed and anti-M13-HRP was added, and after additional washing the plates were developed with TMB substrate and quenched with 2N […].
(In an ELISA, binding on a coated surface is turned into a signal by an enzyme label.)

Assay [1] deals with T2, CH3C.35 Fc-Fab fusion (bivalent) (Homo sapiens (Human), UniProt P0DOX5 230-449 = IgG part).
T2 construct: bivalent for TfR; also called CH3C.35.bi; CHC3.35
T2 Fc: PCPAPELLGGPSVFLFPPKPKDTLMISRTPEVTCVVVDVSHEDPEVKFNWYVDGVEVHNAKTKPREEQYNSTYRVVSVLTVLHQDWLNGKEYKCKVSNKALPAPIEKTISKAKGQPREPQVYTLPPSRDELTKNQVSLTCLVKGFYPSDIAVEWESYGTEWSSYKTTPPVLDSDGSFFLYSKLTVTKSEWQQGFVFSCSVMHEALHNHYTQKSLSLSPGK
Kind of assay: phage ELISA: phage-displayed human TfR apical domain, dilution series on plate-coated CH3C.35; OD650. How it is done:
as §1

In assay [2] the target is T2, CH3C.35 Fc-Fab fusion (bivalent). Kind of assay: phage ELISA: phage-displayed TfR apical domain, dilution series on plate-coated CH3C.35; OD650. How it is done: as §1
Assay [3] concerns the target T3, human transferrin receptor (TfR) ectodomain (ECD) (human, UniProt P02786 121-760, biotinylated where captured on streptavidin).
T3 construct: also called human TfR; huTfR
Kind of assay: phage ELISA, phage dilution series on plate-coated human TfR without and with holo-Tf; OD650.
Target sequence in this assay (P02786 121-760): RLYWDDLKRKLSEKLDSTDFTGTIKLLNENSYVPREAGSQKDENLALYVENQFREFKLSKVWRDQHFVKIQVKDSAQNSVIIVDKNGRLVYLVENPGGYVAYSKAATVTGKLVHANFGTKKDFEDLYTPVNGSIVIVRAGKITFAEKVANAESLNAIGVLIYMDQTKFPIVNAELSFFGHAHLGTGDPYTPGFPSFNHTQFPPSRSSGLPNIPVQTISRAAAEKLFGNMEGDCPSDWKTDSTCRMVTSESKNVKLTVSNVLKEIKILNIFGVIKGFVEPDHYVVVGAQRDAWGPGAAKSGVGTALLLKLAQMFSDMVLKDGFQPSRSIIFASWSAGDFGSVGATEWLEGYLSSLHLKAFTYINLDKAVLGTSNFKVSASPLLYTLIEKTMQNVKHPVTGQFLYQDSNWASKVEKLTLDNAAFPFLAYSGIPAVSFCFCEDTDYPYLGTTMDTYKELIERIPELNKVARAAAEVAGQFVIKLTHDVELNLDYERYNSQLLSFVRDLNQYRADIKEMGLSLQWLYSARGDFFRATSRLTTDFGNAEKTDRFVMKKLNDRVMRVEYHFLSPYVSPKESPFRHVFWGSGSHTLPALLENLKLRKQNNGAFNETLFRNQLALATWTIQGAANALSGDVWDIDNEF

Assay [4] has as its target T3, human transferrin receptor (TfR) …. Kind of assay: SPR (Biacore), same protocol as previously described; form of human TfR not stated. In general terms: Surface plasmon resonance follows binding to a sensor surface in real time, without labels.
Target sequence in this assay (P02786 121-760): as above
The target in the next assay is streptavidin (Natural streptavidin is a homotetramer; one chain is given.). Kind of assay: phage ELISA, phage dilution series on plate-coated streptavidin; OD650.
The target in assay [5] is T3, human transferrin receptor (TfR) …. As to the kind of experiment: phage ELISA, phage dilution series on plate-coated human TfR without and with holo-Tf; OD650. From the text:
The CH2C variants were expressed as Fc fusions to Fab fragments by cloning into an expression vector containing an anti-BACE1 benchmark variable region sequence.
Target sequence in this assay (P02786 121-760): as above
This is another data set of the same source.

In assay [6] the target is T4, cynomolgus transferrin receptor (TfR) ectodomain (ECD) (cynomolgus, UniProt Q5RDH6 121-760 (Pongo abelii entry), biotinylated where captured on streptavidin).
T4 construct: also called cyno TfR; cynoTfR
T4 chain: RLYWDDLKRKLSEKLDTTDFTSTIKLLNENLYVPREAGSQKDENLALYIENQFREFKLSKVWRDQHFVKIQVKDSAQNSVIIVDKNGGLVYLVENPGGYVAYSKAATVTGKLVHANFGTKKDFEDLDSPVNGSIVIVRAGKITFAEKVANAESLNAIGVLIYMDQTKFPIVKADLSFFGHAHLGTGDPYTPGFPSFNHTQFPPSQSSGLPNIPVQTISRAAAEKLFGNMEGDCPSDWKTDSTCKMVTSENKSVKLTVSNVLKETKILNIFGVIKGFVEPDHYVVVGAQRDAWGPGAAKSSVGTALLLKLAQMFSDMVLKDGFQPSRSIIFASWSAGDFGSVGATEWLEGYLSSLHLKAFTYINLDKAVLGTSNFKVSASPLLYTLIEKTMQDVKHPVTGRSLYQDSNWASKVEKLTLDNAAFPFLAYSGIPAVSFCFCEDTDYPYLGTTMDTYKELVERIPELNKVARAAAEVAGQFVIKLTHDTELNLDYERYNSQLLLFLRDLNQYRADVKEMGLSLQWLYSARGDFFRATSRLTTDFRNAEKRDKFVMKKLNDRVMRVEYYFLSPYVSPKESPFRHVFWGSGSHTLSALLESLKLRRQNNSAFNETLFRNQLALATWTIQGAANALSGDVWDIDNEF
As to the kind of experiment: phage ELISA: Fc variant on phage, titrated by OD268 of the phage solution on plate-coated cyno TfR; OD650.

Assay [7] addresses T3, human transferrin receptor (TfR) …. As to the kind of experiment: phage ELISA: Fc variant on phage, titrated by OD268 of the phage solution on plate-coated human TfR; OD650.

B1: loop-truncated human TfR apical domain displayed on phage (receptor)
chain: SSGLPNIPVQTISRAAAEKLFGNMEGDCPSDWKTDSTCRMVTSESKNVKLTVSNDSAQNSVIIVDKNGRLVYLVENPGGYVAYSKAATVTGKLVHANFGTKKDFEDLYTPVNGSIVIVRAGKITFAEKVANAESLNAIGVLIYMDQTKFPIVNAELSGP
notes: fused to phage coat, Myc-tagged; also called human TfR apical domain (phage)
As for B1, the binding result (with CH3C.18 Fc-Fab fusion; in assay [1]) was “binds” throughout.

B2: loop-truncated cynomolgus TfR apical domain displayed on phage (receptor)
chain: SSGLPNIPVQTISRAAAEKLFGNMEGDCPSDWKTDSTCKMVTSENKSVKLTVSNDSAQNSVIIVDKNGGLVYLVENPGGYVAYSKAATVTGKLVHANFGTKKDFEDLDSPVNGSIVIVRAGKITFAEKVANAESLNAIGVLIYMDQTKFPIVKADLSGP
notes: fused to phage coat, Myc-tagged; also called cyno apical domain (phage)
Turning to B2, in [2], the binding result was “binds”.

B3: Clone CH3B.11 (designed binder)
chain: PCPAPELLGGPSVFLFPPKPKDTLMISRTPEVTCVVVDVSHEDPEVKFNWYVDGVEVHNAKTKPREEQYNSTYRVVSVLTVLHQDWLNGKEYKCKVSNKALPAPIEKTISKAKGQPRFGLVTTLPPSRDELTKNQVSLTCLVKGFYPSDIAVEWESNGQPENNYKTTPPVLDSDGSFFLYSKLTVDKSRWQQGNVFSCSVMHEALHNHYGFHDLSLSPGK
Take B3: the binding result in [3] is given as “binds”.

B4: Clone CH3B.12 (designed binder)
chain: PCPAPELLGGPSVFLFPPKPKDTLMISRTPEVTCVVVDVSHEDPEVKFNWYVDGVEVHNAKTKPREEQYNSTYRVVSVLTVLHQDWLNGKEYKCKVSNKALPAPIEKTISKAKGQPRFDYVTTLPPSRDELTKNQVSLTCLVKGFYPSDIAVEWESNGQPENNYKTTPPVLDSDGSFFLYSKLTVDKSRWQQGNVFSCSVMHEALHNHYGFSDLSLSPGK
With B4, in assay [3], the binding result is listed as “binds”.

B5: Clone CH3C.35.N390.1 (designed binder)
chain: PCPAPELLGGPSVFLFPPKPKDTLMISRTPEVTCVVVDVSHEDPEVKFNWYVDGVEVHNAKTKPREEQYNSTYRVVSVLTVLHQDWLNGKEYKCKVSNKALPAPIEKTISKAKGQPREPQVYTLPPSRDELTKNQVSLTCLVKGFYPSDIAVEWESYGTEWSNYKTTPPVLDSDGSFFLYSKLTVSKSEWQQGFVFSCSVMHEALHNHYTQKSLSLSPGK
On to B5, for which, in [4], the Kd (usually a measure of binding affinity in units of concentration) came to 2000 nM.

B6: Clone CH3C.35.23.1.1 (designed binder)
chain: PCPAPELLGGPSVFLFPPKPKDTLMISRTPEVTCVVVDVSHEDPEVKFNWYVDGVEVHNAKTKPREEQYNSTYRVVSVLTVLHQDWLNGKEYKCKVSNKALPAPIEKTISKAKGQPREPQVYTLPPSRDELTKNQVSLTCLVKGFYPSDIAVEWESFGTEWSNYKTTPPVLDSDGSFFLYSKLTVSKEEWQQGFVFSCSVMHEALHNHYTQKSLSLSPGK
B6: in [4], the Kd was 750 nM.

B7: Clone CH3C.35.23.2.1 (designed binder)
chain: PCPAPELLGGPSVFLFPPKPKDTLMISRTPEVTCVVVDVSHEDPEVKFNWYVDGVEVHNAKTKPREEQYNSTYRVVSVLTVLHQDWLNGKEYKCKVSNKALPAPIEKTISKAKGQPREPQVYTLPPSRDELTKNQVSLTCLVKGFYPSDIAVEWESYGTEWANYKTTPPVLDSDGSFFLYSKLTVSKSEWQQGFVFSCSVMHEALHNHYTQKSLSLSPGK
In turn, B7 came in with a Kd in [4] of 690 nM.

B8: Clone CH3C.35.23.3.1 (designed binder)
chain: PCPAPELLGGPSVFLFPPKPKDTLMISRTPEVTCVVVDVSHEDPEVKFNWYVDGVEVHNAKTKPREEQYNSTYRVVSVLTVLHQDWLNGKEYKCKVSNKALPAPIEKTISKAKGQPREPQVYTLPPSRDELTKNQVSLTCLVKGFYPSDIAVEWESYGTEWVNYKTTPPVLDSDGSFFLYSKLTVSKEEWQQGFVFSCSVMHEALHNHYTQKSLSLSPGK
B8 had a Kd in assay [4] of 1900 nM. This Kd is about 2.8-fold higher than that of the molecule before.

B9: Clone CH3C.35.23.6.1 (designed binder)
chain: PCPAPELLGGPSVFLFPPKPKDTLMISRTPEVTCVVVDVSHEDPEVKFNWYVDGVEVHNAKTKPREEQYNSTYRVVSVLTVLHQDWLNGKEYKCKVSNKALPAPIEKTISKAKGQPREPQVYTLPPSRDELTKNQVSLTCLVKGFYPSDIAVEWESFGTEWVNYKTTPPVLDSDGSFFLYSKLTVSKEEWQQGFVFSCSVMHEALHNHYTQKSLSLSPGK
B9 yielded a Kd in assay [4] of 2100 nM.

B10: Clone CH3C.35.S413 (designed binder)
chain: PCPAPELLGGPSVFLFPPKPKDTLMISRTPEVTCVVVDVSHEDPEVKFNWYVDGVEVHNAKTKPREEQYNSTYRVVSVLTVLHQDWLNGKEYKCKVSNKALPAPIEKTISKAKGQPREPQVYTLPPSRDELTKNQVSLTCLVKGFYPSDIAVEWESYGTEWSSYKTTPPVLDSDGSFFLYSKLTVSKSEWQQGFVFSCSVMHEALHNHYTQKSLSLSPGK
The molecule B10 gave a Kd in [4] of 1700 nM.

B11: Clone CH3C.35.20.1.1 (designed binder)
chain: PCPAPELLGGPSVFLFPPKPKDTLMISRTPEVTCVVVDVSHEDPEVKFNWYVDGVEVHNAKTKPREEQYNSTYRVVSVLTVLHQDWLNGKEYKCKVSNKALPAPIEKTISKAKGQPREPQVYTLPPSRDELTKNQVSLTCLVKGFYPSDIAVEWESFGTEWSSYKTTPPVLDSDGSFFLYSKLTVSKEEWQQGFVFSCSVMHEALHNHYTQKSLSLSPGK
B11 displayed a Kd in assay [4] of 620 nM.

B12: Clone CH2C.17 (designed binder)
chain: PCPAPELLGGPSVFLFPPKPKDTLMISRTPEVTCVVVDMLWPVPEVKFNWYVDGVEVHNAKTKPREEVYHRPYRVVSVLTVLHQDWLNGKEYKCKVSNKALPAPIEKTISKAKGQPREPQVYTLPPSRDELTKNQVSLTCLVKGFYPSDIAVEWESNGQPENNYKTTPPVLDSDGSFFLYSKLTVDKSRWQQGNVFSCSVMHEALHNHYTQKSLSLSPGK
notes: modified Fc; found by yeast display, tested on phage with holo-Tf
For B12, the binding result with streptavidin is “no binding (tested: dilution 1 (least diluted phage))”; in [5], “binds”.

B13: Clone CH2C.22 (designed binder)
chain: PCPAPELLGGPSVFLFPPKPKDTLMISRTPEVTCVVVDDDLTFQEVKFNWYVDGVEVHNAKTKPREELYVTPYRVVSVLTVLHQDWLNGKEYKCKVSNKALPAPIEKTISKAKGQPREPQVYTLPPSRDELTKNQVSLTCLVKGFYPSDIAVEWESNGQPENNYKTTPPVLDSDGSFFLYSKLTVDKSRWQQGNVFSCSVMHEALHNHYTQKSLSLSPGK
notes: as for B12
As to B13, the results for the binding result (with streptavidin; in [5]) were “no binding (tested: dilution 1 (least diluted phage))” and “binds”, respectively.

B14: Clone CH2A2.5 (designed binder)
chain: PCPAPELLGGPSVFLFPPKPKDTLMISRTPEVTCVVVDVSHEDPEVAFTWYVDGVPVRWEWQNPREEQYNSTYRVVSVLTVLHQDWLNGKEYKCKVSNKALPAPIEKTISKAKGQPREPQVYTLPPSRDELTKNQVSLTCLVKGFYPSDIAVEWESNGQPENNYKTTPPVLDSDGSFFLYSKLTVDKSRWQQGNVFSCSVMHEALHNHYTQKSLSLSPGK
B14: the binding result in assay [6] and in assay [7] was “binds” throughout.

(Values after patent US20230235072A1 (DENALI THERAPEUTICS, published 2023).)
